Test [1] concerns the target T1, human GIPR (hGIPR) (Homo sapiens, UniProt P48546).
T1 sequence (P48546 22-466): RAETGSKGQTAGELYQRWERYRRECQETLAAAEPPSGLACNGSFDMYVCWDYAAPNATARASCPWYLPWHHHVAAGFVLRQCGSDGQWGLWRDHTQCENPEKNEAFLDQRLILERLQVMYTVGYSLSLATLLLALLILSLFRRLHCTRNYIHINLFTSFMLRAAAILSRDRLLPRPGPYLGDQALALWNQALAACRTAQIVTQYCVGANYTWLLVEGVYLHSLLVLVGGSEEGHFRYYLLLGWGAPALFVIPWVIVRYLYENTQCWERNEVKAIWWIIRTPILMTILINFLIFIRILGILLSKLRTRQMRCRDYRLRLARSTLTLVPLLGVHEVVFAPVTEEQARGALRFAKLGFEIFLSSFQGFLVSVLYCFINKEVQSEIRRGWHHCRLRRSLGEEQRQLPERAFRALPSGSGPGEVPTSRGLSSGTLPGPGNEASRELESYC
Description: Functional in vitro GIPR antagonist potency assay (human GIPR-CHO cAMP, HTRF). The note with it: CHO-K1 cells stably expressing hGIPR, 1.5 nM hGIP. It counts as cell-based. An excerpt:
Following agonist activation, hGIPR associates with the G-protein complex causing the Gas subunit to exchange bound Guanosine diphosphate (GDP) for guanosine triphosphate (GTP), followed by dissociation of the Gas-GTP complex. The activated Gas subunit can couple to downstream effectors to regulate the levels of second messengers or cAMP within the cell. Thereby, determination of intracellular cAMP levels allows for pharmacological characterization. Intracellular cAMP levels were quantified using a homogenous assay utilizing the Homogeneous Time Resolved Fluorescence (HTRF) technology from Perkin Elmer. The method was a competitive immunoassay between native cAMP produced by the cells and cAMP labelled with the acceptor dye, d2. The two entities competed for binding to a monoclonal anti-cAMP antibody labeled with cryptate. […] G2269) in 1× cAMP assay buffer was added to the assay plate (5 μL/well) at 4.5 nM (final concentration of 1.5 nM) and incubated for another 30 minutes at 37° C., after which intracellular cAMP levels were quantified with Cisbio cAMP-GS Dynamic kit (#62AM4PEC) with dilution of 20× of D2 and Eu in lysis buffer, mixed 1:1 by volume, and added 15 ul/well into plate, with a quick spin. […] The plate was then read on an Envision plate reader. Data were analyzed using the ratio of fluorescence intensity at 620 and 665 nm for each well.

For test [2], the system named is diet induced obese (DIO) hGIPR mice. The experiment in a line: Body weight gain prevention and food intake in DIO hGIPR mice on high fat diet. The note with it: 1 mg/kg s.c. twice a week, 60% high fat diet, compared to IgG control (FIG. 6). It counts as in vivo, mouse. The text has this:
Male hGIPR mice between 18-21 weeks of age were utilized which had been on 60% high fat diet (D12492, Research Diets) for 14 weeks prior to the start of the study and were singly housed, maintained on a 12-hour light/12-hour dark cycle, and received food and water ad libitum. Prior to the start of the study, mice were randomized into each group based on body weight. […] Mice were continued on 60% high fat diet for the duration of the study. In FIG. 2, number of animals per group=10; Data are presented as the mean and error bars are SEM.
To determine statistical significance for the body weight endpoint, a generalized least squares linear model with appropriate fixed effects and correlation and variance structure are used for BW outcomes. All residuals were evaluated for meeting the normality assumption with the Shapiro-Wilks Test and Q-Q Plots and the sphericity and homoscedasticity assumption by the residual plots and Bartlett's test. […]
Male hGIPR mice between 18-21 weeks of age were utilized which had been on 60% high fat diet (D12492, Research Diets) for 14 weeks prior to the start of the study and were singly housed, maintained on a 12 hour light/12 hour dark cycle, and received food and water ad libitum. […] Percent change in body weight at each time point was calculated based on difference from pre-dose weight, and 24 hour food intake was measured during week 3. […]

“2G10: fully human monoclonal anti-GIPR antagonist antibody portion of AMG 133 (maridebart cafraglutide); benchmark antibody [reference compound]” displayed an IC50 in test [1] of 30.4 nM. Besides, the body weight gain result in test [2] was “reduced body weight gain”.

The values above are taken from patent US20250163168A1, “NOVEL ANTIBODIES AND ANTIBODY CONJUGATES FOR THE TREATMENT OF METABOLIC DISORDERS” (PFIZER INC., priority 2023, published 2025).
